Source: PMC12990809

How the values were obtained:
Assay in all cases: pulldown
[1] = biological target: T1, DDB_G0286331 (Dictyostelium discoideum) (UniProt Q54M41); details: 20 nM protein, 1.5 uM RNA pool; 20 mM HEPES pH 7.8, 70 mM KCl, 10 mM NaCl, 10% glycerol, 2 mM DTT, 0.1 ug/uL BSA; 30 min, 4 C
T1 sequence: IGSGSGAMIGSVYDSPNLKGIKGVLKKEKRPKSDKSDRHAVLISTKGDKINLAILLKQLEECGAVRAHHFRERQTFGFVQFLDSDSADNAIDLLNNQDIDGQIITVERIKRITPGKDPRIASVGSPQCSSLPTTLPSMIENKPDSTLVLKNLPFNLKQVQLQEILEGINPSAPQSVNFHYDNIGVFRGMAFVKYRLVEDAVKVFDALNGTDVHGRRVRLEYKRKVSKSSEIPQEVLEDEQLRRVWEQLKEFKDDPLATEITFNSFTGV

[2] = biological target: T2, DDB_G0270634 (Dictyostelium discoideum) (UniProt Q55D63); details: 20 nM protein, 1.5 uM RNA pool; 20 mM HEPES pH 7.8, 70 mM KCl, 10 mM NaCl, 10% glycerol, 2 mM DTT, 0.1 ug/uL BSA; 30 min, 4 C
T2 sequence: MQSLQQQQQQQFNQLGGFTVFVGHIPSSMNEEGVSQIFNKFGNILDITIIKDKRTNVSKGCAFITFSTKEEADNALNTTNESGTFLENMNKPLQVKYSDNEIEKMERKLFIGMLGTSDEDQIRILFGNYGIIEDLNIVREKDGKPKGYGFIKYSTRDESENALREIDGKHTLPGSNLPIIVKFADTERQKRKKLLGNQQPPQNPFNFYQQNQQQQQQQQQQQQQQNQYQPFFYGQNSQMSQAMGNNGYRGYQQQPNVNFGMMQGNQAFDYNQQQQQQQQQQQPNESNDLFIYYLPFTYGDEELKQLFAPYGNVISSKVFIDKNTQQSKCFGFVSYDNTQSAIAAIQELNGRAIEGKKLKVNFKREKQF

MBNL2 (Homo sapiens) = biological target: T3, MBNL2 (Homo sapiens) (UniProt Q5VZF2); details: 20 nM protein, 1.5 uM RNA pool; 20 mM HEPES pH 7.8, 70 mM KCl, 10 mM NaCl, 10% glycerol, 2 mM DTT, 0.1 ug/uL BSA; 30 min, 4 C
T3 sequence: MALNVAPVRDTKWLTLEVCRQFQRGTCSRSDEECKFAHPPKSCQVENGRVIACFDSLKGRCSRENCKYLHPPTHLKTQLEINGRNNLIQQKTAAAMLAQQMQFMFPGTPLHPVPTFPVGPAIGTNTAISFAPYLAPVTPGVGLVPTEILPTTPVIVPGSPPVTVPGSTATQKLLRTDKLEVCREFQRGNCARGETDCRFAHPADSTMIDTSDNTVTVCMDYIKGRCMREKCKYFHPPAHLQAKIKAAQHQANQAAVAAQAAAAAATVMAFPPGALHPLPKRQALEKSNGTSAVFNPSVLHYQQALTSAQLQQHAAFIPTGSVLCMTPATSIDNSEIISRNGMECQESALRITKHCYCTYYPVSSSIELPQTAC

[3] = biological target: T4, PK04894.1 Y197N (Cannabis sativa) (UniProt A0A803PQ48); details: 20 nM protein, 1.5 uM RNA pool; 20 mM HEPES pH 7.8, 70 mM KCl, 10 mM NaCl, 10% glycerol, 2 mM DTT, 0.1 ug/uL BSA; 30 min, 4 C
T4 sequence: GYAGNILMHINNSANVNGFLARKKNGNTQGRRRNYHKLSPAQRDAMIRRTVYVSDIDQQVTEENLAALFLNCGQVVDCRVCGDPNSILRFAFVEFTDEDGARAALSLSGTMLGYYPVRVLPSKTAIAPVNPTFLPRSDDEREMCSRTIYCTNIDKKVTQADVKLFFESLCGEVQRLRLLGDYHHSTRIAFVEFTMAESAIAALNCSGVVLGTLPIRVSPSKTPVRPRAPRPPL

HNRNPA2B1 (Homo sapiens) = HNRNPA2B1 (Homo sapiens) (UniProt P22626); details: 20 nM protein, 1.5 uM RNA pool; 20 mM HEPES pH 7.8, 70 mM KCl, 10 mM NaCl, 10% glycerol, 2 mM DTT, 0.1 ug/uL BSA; 30 min, 4 C (protocol of this paper; not …); cited from earlier work
HNRNPA2B1 (Homo sapiens), sequence (P22626 1-233): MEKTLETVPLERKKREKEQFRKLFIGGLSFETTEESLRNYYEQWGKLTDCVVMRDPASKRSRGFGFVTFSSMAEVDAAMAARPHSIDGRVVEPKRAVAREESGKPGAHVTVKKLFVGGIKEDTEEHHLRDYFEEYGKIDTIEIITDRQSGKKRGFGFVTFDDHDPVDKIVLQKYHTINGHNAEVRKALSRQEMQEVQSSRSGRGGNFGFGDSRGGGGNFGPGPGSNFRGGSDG

[4] = biological target: T5, RBM47 ins277_K (Meleagris gallopavo) (UniProt G1NI04); details: 20 nM protein, 1.5 uM RNA pool; 20 mM HEPES pH 7.8, 70 mM KCl, 10 mM NaCl, 10% glycerol, 2 mM DTT, 0.1 ug/uL BSA; 30 min, 4 C
T5 sequence: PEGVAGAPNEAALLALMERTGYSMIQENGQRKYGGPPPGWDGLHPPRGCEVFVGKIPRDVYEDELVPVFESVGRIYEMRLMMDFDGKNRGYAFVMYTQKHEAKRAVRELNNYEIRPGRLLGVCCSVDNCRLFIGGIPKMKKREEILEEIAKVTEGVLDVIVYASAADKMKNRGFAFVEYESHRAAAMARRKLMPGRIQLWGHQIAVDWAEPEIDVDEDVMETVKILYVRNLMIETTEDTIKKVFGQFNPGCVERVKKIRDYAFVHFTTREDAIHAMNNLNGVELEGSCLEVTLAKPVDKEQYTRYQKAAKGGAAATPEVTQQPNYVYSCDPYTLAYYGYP

[5] = biological target: T6, PK14112.1 (Cannabis sativa) (UniProt A0A7J6DPE0); details: 20 nM protein, 1.5 uM RNA pool; 20 mM HEPES pH 7.8, 70 mM KCl, 10 mM NaCl, 10% glycerol, 2 mM DTT, 0.1 ug/uL BSA; 30 min, 4 C
T6 sequence: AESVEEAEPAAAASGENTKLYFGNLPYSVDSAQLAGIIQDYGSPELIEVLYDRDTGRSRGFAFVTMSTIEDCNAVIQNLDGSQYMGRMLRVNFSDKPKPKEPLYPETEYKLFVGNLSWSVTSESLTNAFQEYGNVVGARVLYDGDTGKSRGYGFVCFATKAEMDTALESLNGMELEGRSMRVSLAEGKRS

[6] = biological target: T7, PK20300.1 (Cannabis sativa) (UniProt A0A803QWA0); details: 20 nM protein, 1.5 uM RNA pool; 20 mM HEPES pH 7.8, 70 mM KCl, 10 mM NaCl, 10% glycerol, 2 mM DTT, 0.1 ug/uL BSA; 30 min, 4 C
T7 sequence: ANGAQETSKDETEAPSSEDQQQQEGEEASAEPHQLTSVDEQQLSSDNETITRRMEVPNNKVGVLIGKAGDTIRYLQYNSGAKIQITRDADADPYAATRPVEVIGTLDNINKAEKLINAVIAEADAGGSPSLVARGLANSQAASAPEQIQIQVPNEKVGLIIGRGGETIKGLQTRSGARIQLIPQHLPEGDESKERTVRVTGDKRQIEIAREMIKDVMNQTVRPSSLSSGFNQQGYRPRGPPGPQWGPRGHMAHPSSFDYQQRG

[7] = system: T8, PK23842.1 (Cannabis sativa); details: 20 nM protein, 1.5 uM RNA pool; 20 mM HEPES pH 7.8, 70 mM KCl, 10 mM NaCl, 10% glycerol, 2 mM DTT, 0.1 ug/uL BSA; 30 min, 4 C
T8 sequence: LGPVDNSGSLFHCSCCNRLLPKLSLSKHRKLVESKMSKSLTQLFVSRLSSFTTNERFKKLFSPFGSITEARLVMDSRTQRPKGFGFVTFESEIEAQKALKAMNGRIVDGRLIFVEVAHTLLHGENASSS

[8] = biological target: T9, PK26404.1 L183S (Cannabis sativa) (UniProt A0A7J6ELY7); details: 20 nM protein, 1.5 uM RNA pool; 20 mM HEPES pH 7.8, 70 mM KCl, 10 mM NaCl, 10% glycerol, 2 mM DTT, 0.1 ug/uL BSA; 30 min, 4 C
T9 sequence: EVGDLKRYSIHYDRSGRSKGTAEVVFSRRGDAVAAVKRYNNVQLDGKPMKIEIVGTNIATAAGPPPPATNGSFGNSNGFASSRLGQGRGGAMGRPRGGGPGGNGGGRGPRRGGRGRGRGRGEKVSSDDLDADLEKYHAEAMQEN

## AUAAAC [RNAcompete motif RNCMPT00351]
[1]
  binding signal (z-score (mean of top ten 7-mers)): 8.36

## UUUUUGU [RNAcompete motif RNCMPT00399]
[2]
  binding signal (z-score (mean of top ten 7-mers)): 8.63

## GCUUGC [RNAcompete motif RNCMPT00401]
MBNL2 (Homo sapiens)
  binding signal (z-score (mean of top ten 7-mers)): 10.7

## AAUAAG [RNAcompete motif RNCMPT00346]
[3]
  binding signal (z-score (mean of top ten 7-mers)): 15.1

## UAGGGA [RNAcompete motif RNCMPT00024]
HNRNPA2B1 (Homo sapiens)
  binding signal (z-score (mean of top ten 7-mers)): 8.86

## AGAUGA [RNAcompete motif RNCMPT00394]
[4]
  binding signal (z-score (mean of top ten 7-mers)): 8.98

## GAUACUG [RNAcompete motif RNCMPT00392]
[5]
  binding signal (z-score (mean of top ten 7-mers)): 8.21

## AGCAUGA [RNAcompete motif RNCMPT00360]
[6]
  binding signal (z-score (mean of top ten 7-mers)): 11.4

## AAUCCA [RNAcompete motif RNCMPT00372]
[7]
  binding signal (z-score (mean of top ten 7-mers)): 6.16

## GCGCGC [RNAcompete motif RNCMPT00364]
[8]
  binding signal (z-score (mean of top ten 7-mers)): 6.8
